The record followed here is patent US20170368138A1 (published 2017).

For the assay, the target named is U87MG. Kind of assay: flow cytometry, cell binding; human U87MG cells.

B1: NOD201M (Fc fusion)
chain: GCPRPRGDNPPLTCSQDSDCLAGCVCGPNGFCGEPRVPITQNPCPPLKECPPCAAPDLLGGPSVFIFPPKIKDVLMISLSPMVTCVVVDVSEDDPDVQISWFVNNVEVHTAQTQTHREDYNSTLRVVSALPIQHQDWMSGKEFKCKVNNRALPSPIEKTISKPRGPVRAPQVYVLPPPAEEMTKKEFSLTCMITGFLPAEIAVDWTSNGRTEQNYKNTATVLDSDGSYFMYSKLRVQKSTWERGSLFACSVVHEGLHNHLTTKTISRSLG
As to B1, the Kd (as a rule, the constant that tells how readily two partners part at equilibrium) is 0.7 nM.
